Test results from patent publication US20150258192A1, “COMPOSITIONS AND METHODS FOR PREVENTING OR TREATING CHRONIC LUNG ALLOGRAFT DYSFUNCTION (CLAD) AND IDIOPATHIC PULMONARY FIBROSIS (IPF)” (priority 2014, published 2015).
No end group written: not given here.

Key:
Assay in all cases: Kinase Profiling Assay
Format in all cases: biochemical
Settings in all cases: peptide 100 μM
ROCK-II(h) = ROCK-II(h) (Homo sapiens, UniProt O75116)
Summary of the method: (§1)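 Measured twice per kinase, activity in presence of MK2 inhibitory peptide was calculated against a 100% activity control after radiometric phosphorylation of a cationic substrate, anionic filter capture and scintillation counting; one of 266 human kinases profiled for specificity.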

MAPK1(h) = target: T1, MAPK1(h) (Homo sapiens, UniProt P27361)
T1 construct: purchased Millipore
T1 sequence (P27361 whole entry): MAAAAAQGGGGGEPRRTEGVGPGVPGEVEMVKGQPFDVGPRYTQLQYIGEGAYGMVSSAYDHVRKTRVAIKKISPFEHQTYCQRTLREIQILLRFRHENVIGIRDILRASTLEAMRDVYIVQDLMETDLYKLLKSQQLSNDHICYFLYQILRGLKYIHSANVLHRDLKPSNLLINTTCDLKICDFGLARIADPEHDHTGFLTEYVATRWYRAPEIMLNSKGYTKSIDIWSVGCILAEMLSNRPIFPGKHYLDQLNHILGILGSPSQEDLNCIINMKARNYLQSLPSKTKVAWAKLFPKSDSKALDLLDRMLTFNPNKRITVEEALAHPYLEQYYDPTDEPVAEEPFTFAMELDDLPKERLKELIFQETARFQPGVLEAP
Summary of the method: as §1

Pim-1(h) = Pim-1(h) (Homo sapiens, UniProt P11309)
Sequence of Pim-1(h) (P11309 whole entry): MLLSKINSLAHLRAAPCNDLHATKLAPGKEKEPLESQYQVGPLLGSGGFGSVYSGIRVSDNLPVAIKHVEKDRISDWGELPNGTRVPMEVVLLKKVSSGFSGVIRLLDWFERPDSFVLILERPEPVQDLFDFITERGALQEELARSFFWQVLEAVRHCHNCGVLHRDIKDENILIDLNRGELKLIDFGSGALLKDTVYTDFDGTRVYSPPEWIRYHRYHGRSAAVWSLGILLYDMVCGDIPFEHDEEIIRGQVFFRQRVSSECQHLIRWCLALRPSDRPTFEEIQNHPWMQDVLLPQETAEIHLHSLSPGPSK
Summary of the method: as §1

PKG1α(h) = target: T2, PKG1α(h) (Homo sapiens, UniProt Q13976)
T2 sequence (Q13976 1-671): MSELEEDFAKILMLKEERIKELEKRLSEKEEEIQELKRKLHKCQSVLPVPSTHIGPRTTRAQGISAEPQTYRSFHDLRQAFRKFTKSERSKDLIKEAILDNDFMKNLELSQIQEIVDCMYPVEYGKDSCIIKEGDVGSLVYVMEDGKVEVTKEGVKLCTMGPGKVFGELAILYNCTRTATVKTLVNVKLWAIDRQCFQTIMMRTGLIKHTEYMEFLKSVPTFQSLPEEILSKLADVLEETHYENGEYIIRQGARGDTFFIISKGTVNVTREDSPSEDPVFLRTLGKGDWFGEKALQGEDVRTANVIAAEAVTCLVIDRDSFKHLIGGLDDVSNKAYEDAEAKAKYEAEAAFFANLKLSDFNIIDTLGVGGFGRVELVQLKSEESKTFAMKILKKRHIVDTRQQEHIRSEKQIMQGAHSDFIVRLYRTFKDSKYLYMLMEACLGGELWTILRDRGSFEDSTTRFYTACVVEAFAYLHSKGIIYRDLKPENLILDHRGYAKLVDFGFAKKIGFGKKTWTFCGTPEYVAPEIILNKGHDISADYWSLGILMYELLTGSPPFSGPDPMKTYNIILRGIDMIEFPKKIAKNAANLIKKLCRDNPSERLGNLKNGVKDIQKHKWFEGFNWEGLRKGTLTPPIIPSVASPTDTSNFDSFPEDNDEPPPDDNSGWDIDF
Summary of the method: as §1

EphA5(h) = EphA5(h) (Homo sapiens, UniProt P54756)
Sequence of EphA5(h) (P54756 25-1037): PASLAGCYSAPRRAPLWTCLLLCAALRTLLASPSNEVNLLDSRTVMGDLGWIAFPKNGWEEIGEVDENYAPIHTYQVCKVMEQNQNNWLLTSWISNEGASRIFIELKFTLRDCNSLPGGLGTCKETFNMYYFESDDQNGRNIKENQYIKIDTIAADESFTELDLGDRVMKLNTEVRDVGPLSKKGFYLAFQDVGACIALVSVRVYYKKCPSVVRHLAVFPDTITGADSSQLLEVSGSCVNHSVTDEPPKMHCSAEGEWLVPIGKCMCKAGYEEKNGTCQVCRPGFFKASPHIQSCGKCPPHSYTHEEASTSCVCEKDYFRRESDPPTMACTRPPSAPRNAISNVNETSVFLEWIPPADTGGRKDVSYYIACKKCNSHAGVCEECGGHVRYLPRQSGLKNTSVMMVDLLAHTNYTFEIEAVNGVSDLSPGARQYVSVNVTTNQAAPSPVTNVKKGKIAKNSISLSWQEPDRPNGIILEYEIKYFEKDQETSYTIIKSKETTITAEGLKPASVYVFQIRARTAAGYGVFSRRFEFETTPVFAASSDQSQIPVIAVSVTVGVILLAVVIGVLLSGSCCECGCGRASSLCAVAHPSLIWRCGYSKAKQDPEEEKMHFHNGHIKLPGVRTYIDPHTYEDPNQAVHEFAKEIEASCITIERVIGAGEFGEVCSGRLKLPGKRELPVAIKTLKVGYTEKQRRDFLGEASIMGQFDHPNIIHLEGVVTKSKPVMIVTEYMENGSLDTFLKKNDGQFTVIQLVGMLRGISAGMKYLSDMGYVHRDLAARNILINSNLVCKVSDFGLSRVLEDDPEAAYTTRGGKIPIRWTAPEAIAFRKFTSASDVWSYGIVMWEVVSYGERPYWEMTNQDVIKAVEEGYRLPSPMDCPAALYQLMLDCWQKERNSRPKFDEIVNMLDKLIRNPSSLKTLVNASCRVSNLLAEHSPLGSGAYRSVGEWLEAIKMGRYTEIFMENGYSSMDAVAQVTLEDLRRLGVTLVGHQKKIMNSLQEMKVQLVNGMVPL
Summary of the method: as §1

DAPK2(h) = DAPK2(h) (Homo sapiens, UniProt Q9UIK4)
Sequence of DAPK2(h) (Q9UIK4 whole entry): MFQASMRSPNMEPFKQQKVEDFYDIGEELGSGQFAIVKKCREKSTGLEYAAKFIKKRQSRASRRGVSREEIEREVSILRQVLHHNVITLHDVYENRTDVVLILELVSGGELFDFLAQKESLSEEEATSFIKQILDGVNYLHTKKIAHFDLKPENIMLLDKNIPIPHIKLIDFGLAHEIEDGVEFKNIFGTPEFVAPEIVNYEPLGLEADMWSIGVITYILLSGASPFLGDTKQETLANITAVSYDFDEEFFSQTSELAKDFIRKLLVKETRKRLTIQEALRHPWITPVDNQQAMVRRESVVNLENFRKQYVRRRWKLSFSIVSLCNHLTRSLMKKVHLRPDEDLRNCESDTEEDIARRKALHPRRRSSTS
Summary of the method: as §1

Syk(h) = target: T3, Syk(h) (Homo sapiens, UniProt P43405)
T3 construct: purchased Millipore
Summary of the method: as §1

MKK6(h) = target: T4, MKK6(h) (Homo sapiens, UniProt P52564)
T4 construct: purchased Millipore
T4 sequence (P52564 1-334): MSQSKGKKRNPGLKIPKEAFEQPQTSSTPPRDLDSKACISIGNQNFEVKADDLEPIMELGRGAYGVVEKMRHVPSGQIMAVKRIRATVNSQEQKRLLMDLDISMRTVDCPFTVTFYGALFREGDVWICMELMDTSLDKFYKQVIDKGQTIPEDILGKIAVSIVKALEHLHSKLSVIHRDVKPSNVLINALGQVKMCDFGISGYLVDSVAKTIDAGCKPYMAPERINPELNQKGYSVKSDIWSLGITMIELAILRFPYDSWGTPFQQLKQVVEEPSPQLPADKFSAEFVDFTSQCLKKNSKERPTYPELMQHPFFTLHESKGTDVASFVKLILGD
Summary of the method: as §1

Ret(V804M)(h) = Ret(V804M)(h) (Homo sapiens, UniProt P07949, V804M)
Summary of the method: as §1

EphA3(h) = target: T5, EphA3(h) (Homo sapiens, UniProt P29320)
T5 sequence (P29320 21-983): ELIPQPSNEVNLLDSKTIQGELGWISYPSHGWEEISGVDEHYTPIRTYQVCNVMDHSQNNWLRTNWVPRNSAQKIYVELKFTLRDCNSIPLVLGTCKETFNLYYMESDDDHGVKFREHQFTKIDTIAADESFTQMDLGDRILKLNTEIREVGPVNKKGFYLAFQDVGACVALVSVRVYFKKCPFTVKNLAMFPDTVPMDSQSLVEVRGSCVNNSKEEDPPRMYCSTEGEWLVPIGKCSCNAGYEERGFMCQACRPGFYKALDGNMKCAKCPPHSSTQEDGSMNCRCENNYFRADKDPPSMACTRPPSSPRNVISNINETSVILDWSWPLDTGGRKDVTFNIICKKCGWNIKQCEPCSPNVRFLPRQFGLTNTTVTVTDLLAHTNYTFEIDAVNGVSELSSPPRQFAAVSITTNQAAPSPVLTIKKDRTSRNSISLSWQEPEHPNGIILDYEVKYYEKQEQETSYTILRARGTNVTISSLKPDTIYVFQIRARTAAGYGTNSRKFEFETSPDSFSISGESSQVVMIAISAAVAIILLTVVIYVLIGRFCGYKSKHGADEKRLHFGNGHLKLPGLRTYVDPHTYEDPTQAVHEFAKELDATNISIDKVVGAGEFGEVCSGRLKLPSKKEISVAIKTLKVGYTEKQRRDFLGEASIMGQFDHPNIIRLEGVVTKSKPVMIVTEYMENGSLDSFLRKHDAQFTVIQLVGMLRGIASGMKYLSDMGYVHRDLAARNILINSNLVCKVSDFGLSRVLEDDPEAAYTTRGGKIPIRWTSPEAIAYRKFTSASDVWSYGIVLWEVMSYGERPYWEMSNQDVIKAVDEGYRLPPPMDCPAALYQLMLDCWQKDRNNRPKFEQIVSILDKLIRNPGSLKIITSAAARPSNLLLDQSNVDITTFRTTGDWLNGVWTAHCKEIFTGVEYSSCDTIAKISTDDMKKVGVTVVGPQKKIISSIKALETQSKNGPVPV
Summary of the method: as §1

LIMK1(h) = target: T6, LIMK1(h) (Homo sapiens, UniProt P53667)
T6 construct: purchased Millipore
Summary of the method: as §1

PDGFRα(V561D)(h) = PDGFRα(V561D)(h) (Homo sapiens, UniProt P16234, V561D)
Sequence of PDGFRα(V561D)(h) (P16234 24-1089 V561D): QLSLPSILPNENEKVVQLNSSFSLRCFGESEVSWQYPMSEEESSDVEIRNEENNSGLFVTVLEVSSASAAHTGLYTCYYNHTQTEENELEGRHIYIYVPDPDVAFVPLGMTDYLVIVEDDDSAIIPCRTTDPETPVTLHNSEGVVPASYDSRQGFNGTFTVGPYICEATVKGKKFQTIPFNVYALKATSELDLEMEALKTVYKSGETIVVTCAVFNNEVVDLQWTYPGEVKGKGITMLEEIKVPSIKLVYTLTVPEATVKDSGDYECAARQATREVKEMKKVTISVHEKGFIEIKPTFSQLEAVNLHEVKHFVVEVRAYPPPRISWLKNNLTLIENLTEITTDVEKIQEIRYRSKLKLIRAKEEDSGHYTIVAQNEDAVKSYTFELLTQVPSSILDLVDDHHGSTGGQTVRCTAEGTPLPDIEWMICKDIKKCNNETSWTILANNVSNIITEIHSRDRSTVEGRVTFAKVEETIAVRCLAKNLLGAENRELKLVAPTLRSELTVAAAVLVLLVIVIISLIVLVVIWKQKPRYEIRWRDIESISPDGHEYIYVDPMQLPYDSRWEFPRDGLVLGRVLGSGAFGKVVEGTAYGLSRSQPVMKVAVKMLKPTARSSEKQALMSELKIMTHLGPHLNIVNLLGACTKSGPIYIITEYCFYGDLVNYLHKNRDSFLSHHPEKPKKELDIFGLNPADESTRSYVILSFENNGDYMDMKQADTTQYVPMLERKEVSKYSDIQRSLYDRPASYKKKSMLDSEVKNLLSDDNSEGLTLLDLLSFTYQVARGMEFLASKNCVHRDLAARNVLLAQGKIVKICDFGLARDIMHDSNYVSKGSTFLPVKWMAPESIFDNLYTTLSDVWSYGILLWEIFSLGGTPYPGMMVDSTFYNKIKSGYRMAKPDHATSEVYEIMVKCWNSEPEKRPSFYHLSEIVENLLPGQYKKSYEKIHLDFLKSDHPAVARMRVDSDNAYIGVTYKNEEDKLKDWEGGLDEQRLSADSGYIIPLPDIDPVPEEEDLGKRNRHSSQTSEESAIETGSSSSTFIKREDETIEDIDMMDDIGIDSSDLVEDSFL
Summary of the method: as §1

Sequence of ROCK-II(h) (O75116 whole entry): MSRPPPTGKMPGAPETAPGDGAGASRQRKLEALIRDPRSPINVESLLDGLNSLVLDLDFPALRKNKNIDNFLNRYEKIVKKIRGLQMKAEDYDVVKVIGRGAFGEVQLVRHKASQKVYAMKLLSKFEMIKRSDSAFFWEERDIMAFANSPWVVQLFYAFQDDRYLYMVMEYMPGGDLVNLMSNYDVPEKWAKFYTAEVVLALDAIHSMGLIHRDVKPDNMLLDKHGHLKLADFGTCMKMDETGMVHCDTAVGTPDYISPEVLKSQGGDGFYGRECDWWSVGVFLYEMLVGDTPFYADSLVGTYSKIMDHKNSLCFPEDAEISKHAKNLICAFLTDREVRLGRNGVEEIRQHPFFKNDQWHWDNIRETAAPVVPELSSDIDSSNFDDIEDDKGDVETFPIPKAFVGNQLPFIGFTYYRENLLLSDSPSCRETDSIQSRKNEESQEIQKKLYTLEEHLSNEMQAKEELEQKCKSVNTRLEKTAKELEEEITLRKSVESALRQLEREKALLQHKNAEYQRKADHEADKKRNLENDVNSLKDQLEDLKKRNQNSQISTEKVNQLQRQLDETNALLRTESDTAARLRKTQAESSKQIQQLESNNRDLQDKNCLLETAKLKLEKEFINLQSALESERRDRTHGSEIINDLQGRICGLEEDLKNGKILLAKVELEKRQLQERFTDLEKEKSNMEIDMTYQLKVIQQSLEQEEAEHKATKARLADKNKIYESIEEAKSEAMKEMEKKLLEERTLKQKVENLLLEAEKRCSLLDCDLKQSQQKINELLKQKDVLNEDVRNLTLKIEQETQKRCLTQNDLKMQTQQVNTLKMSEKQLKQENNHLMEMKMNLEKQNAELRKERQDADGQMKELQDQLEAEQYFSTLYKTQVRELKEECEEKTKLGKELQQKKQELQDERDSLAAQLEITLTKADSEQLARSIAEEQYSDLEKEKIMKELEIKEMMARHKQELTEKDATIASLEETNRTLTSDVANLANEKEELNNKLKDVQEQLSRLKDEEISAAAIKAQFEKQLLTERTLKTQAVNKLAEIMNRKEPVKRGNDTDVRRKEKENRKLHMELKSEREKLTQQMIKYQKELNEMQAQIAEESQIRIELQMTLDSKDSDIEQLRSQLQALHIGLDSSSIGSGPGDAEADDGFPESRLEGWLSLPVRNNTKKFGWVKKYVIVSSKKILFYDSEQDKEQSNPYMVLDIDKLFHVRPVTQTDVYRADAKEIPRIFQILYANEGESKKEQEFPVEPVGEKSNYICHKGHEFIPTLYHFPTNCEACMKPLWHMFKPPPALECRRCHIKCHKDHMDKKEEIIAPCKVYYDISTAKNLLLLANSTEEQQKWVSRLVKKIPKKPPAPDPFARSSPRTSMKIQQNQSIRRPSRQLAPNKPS

Row | Sequence | % activity (ROCK-II(h)) [%] | % activity (MAPK1(h)) [%] | % activity (Pim-1(h)) [%] | % activity (PKG1α(h)) [%] | % activity (EphA5(h)) [%] | % activity (DAPK2(h)) [%] | % activity (Syk(h)) [%] | % activity (MKK6(h)) [%] | % activity (Ret(V804M)(h)) [%] | % activity (EphA3(h)) [%] | % activity (LIMK1(h)) [%] | % activity (PDGFRα(V561D)(h)) [%]
1 | YARAAARQARAKALNRQLGVA (Mammal) [MMI-0200] | 85 | 97 | 18 | 70 | 123 | 92 | 36 | 98 | – | – | – | –
2 | YARAAARQARAKALARQLGVAA [MMI-0100] | – | 108 | – | 82 | 110 | – | – | – | 92 | – | – | –
3 | HRRIKAWLKKIKALARQLGVAA (Mammal) [MMI-0500] | 2 | – | 0 | 25 | 42 | 3 | 5 | 18 | 36 | 33 | 87 | 146
4 | KAFAKLAARLYRKALARQLGVAA [MMI-0400] | 77 | 100 | 7 | 58 | 24 | 16 | 9 | 44 | 87 | 12 | 92 | 100
5 | FAKLAARLYRKALARQLGVAA [MMI-0300] | 74 | – | 8 | 64 | 18 | 32 | 24 | 48 | 95 | 6 | 88 | 82
